The target in experiment [1] is T1, Human soluble IL-6R (human, UniProt P08887 20-358).
T1 construct: Soluble recombinant form; biotinylated in some assays; also called hIL-6R; human IL-6R
T1 sequence (looked up): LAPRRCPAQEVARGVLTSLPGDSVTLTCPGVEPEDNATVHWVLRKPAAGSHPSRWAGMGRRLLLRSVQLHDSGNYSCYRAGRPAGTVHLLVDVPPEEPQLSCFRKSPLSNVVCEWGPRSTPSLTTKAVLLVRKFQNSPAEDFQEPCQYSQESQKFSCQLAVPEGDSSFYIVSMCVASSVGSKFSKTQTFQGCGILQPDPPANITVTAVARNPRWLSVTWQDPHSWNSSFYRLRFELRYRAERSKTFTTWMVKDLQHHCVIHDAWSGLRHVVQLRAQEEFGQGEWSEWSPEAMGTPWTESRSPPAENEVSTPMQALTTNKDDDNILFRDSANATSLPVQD
The experiment can be described thus: Biacore T100. (In general: Surface plasmon resonance follows binding to a sensor surface in real time, without labels.)

The target in experiment [2] is T2, Human membrane IL-6R on cells (human, UniProt P08887 20-468).
T2 construct: whole, on cells; also called cell-surface expressed human IL-6R
T2 sequence (looked up): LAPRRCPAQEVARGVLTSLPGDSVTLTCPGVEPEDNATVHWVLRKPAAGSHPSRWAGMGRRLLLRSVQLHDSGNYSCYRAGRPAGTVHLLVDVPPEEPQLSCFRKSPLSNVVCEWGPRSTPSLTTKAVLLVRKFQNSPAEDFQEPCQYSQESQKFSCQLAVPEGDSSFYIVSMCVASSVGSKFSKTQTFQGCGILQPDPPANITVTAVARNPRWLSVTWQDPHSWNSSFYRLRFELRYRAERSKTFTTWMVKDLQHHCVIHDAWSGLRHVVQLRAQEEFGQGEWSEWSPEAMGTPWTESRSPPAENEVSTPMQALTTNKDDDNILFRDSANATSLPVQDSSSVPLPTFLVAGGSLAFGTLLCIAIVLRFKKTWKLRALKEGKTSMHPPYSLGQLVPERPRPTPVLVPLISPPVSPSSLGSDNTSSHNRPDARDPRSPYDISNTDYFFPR
The experiment can be described thus: flow cytometry, human PBL, lymphocytes donor 2. On the technique in general: Flow cytometry measures light scatter and fluorescence of single cells or particles in a stream.

Experiment [3] deals with T3, CLF-1/CLC (UniProt O75462 38-422; Q9UBD9 28-225, limits assumed).
T3 sequence (looked up) 1: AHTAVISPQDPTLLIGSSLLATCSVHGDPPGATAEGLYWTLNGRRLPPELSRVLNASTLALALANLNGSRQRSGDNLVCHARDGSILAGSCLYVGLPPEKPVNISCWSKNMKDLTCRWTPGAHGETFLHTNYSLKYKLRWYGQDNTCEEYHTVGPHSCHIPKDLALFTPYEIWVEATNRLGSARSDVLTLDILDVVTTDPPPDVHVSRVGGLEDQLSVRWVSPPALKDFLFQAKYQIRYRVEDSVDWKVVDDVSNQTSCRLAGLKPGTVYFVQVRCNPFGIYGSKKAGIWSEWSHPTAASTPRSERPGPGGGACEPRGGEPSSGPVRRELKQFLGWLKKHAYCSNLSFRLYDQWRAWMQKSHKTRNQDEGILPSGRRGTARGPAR
T3 sequence (looked up) 2: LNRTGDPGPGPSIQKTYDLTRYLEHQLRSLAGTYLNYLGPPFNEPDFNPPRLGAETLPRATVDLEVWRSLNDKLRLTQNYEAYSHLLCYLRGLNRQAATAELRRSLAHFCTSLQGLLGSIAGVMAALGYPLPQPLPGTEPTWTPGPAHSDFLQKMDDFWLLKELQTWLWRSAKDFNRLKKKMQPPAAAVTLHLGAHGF
The experiment in a line: competitive binding ELISA, similar setup (results not shown). A general note: ELISA stands for enzyme-linked immunosorbent assay.

For experiment [4], the target named is T4, IL12-p40 (UniProt P29460 23-328).
T4 sequence (looked up): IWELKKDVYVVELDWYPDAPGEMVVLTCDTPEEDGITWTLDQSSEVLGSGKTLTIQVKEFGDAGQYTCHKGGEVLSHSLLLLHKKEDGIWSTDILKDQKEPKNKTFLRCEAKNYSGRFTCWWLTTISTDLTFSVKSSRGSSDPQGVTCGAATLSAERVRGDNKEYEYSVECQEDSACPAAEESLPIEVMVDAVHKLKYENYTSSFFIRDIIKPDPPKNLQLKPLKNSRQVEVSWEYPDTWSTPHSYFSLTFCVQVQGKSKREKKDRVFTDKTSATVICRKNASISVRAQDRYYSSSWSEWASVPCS
The description is as above.

For experiment [5], the target named is T5, IL-27B (UniProt Q14213 21-229, limits assumed).
T5 sequence (looked up): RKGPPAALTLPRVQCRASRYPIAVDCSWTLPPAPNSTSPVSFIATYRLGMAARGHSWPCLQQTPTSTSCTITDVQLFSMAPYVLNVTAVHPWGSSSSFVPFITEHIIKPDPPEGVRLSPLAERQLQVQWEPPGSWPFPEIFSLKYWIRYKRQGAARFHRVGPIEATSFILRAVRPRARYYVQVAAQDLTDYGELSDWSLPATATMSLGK
The experiment is described as above.

Experiment [6] has as its target T6, gp130/Fc (UniProt P40189 23-619).
T6 construct: not shown: Fc part, not described
T6 sequence (looked up): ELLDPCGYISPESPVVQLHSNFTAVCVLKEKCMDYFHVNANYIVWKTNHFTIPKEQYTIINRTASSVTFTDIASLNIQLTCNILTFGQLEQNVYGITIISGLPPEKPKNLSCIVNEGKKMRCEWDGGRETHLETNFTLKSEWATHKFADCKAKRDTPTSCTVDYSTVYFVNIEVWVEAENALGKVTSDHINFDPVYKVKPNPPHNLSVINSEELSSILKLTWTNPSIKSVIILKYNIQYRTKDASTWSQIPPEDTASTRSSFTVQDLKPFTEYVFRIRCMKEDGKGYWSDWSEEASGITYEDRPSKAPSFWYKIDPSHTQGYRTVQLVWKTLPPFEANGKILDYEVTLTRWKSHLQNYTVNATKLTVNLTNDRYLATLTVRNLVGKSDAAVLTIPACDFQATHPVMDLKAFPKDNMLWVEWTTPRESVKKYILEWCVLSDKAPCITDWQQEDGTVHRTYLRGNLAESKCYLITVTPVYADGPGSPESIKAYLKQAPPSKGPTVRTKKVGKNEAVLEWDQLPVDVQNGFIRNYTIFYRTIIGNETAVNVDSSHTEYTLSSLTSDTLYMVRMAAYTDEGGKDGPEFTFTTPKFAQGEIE
The experiment is described as above.

In experiment [7] the target is T1, Human soluble IL-6R. The experiment in a line: ELISA, IL6R20A11 on biotinylated human sIL-6R on neutravidin plate.

B1: PMP20A11 (VHH)
VHH: EVQLVESGGGLVQPGGSLRLSCAASGSVFKINVMAWYRQAPGKGRELVAGIISGGSTSYADSVKGRFTISRDNAKNTLYLQMNSLRPEDTAVYYCAFITTESDYDLGRRYWGQGTLVTVSS
notes: also called IL6R20A11; IL6R300; not shown: c-myc and (His)6 tags
Consider B1, for which the equilibrium dissociation constant (Kd) (commonly a measure of binding affinity in units of concentration) in experiment [1] came to 0.019 nM. In addition, the EC50 (commonly the concentration that produces a half-maximal response) was found to be 2.92 nM in experiment [2] and 0.35 nM in experiment [7]. For the same molecule, the binding result in experiment [3], in experiment [4], in experiment [5] and in experiment [6] was “no binding (tested: 100 nM)” in each case.

For the origin of these results see patent publication US20120077731A1 (Ablynx, published 2012).
